Columns and labels:
Test in all cases: SPR
[1] = biological target: mouse Interleukin 33 (residues 112-270) (mouse)
[2] = biological target: HpARI_CCP2/3 (HpARI with CCP1 truncated) (Heligmosomoides polygyrus bakeri)
[3] = biological target: Heligmosomoides polygyrus Alarmin Release Inhibitor (HpARI), full-length (Heligmosomoides polygyrus bakeri)
[4] = biological target: HpARI-LD (full-length HpARI with residues 180-188 of the CCP3 loop deleted) (Heligmosomoides polygyrus bakeri)
[5] = biological target: HpARI_CCP1/2 (HpARI with CCP3 truncated) (Heligmosomoides polygyrus bakeri)

Sequence of HpARI_CCP2/3 (HpARI with CCP1 truncated) (Heligmosomoides polygyrus bakeri) (A0A3P7XL18 63-297): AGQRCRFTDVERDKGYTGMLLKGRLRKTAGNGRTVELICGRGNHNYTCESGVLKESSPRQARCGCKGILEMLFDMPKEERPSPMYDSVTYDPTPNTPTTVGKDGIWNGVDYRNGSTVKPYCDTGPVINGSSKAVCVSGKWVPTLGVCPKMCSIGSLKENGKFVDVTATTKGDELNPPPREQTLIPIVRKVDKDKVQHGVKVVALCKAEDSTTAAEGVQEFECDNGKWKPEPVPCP

Substance: HpARI-LD (full-length HpARI with residues 180-188 of the CCP3 loop deleted) (natural protein)
- percent reduction of mIL-33 binding against HpARI [1]: 60%
- percent reduction of mIL-33 binding to ST2-Fc [1]: 25%

Substance: mouse IL-33 R159A (ligand)
- fold reduction in binding affinity against wild-type mIL-33 [2]: 1000 fold

Substance: mouse Interleukin 33 (residues 112-270) (ligand)
- Kd [3]: 0.048 nM
- Kd [4]: 45 nM
- Kd [5]: 49 nM
- koff, fold over that of full-length HpARI [5]: > 100 fold
- Kd [2]: 4 nM

— article doi:10.1101/2023.08.10.552813
